Source: patent US12698507B2, “Methods and compositions for conferring and/or enhancing herbicide tolerance using protoporphyrinogen IX oxidase of various cyanobacteria or variant thereof” (FarmHannong Co., Ltd., priority 2019, dated 2026)

Tested on: PPO-deficient BT3 E. coli (ΔPPO)
Assay: PPO-inhibiting herbicide tolerance test of PPO variants in E. coli (growth on herbicide-containing LB agar)
Type: cell-based
Details: CyPPO19 variants in BT3 (ΔPPO) E. coli; LB agar with 0 to 2,000 μM herbicide, 37° C., dark, 16-20 hours
Excerpt: To enhance the PPO-inhibiting herbicide resistance of CyPPO19 and CyPPO18, PPO variant genes of the above example 2 were constructed. They were transformed to BT3 (ΔPPO) strain which is deficient of PPO activity and cultured in LB media with PPO-inhibiting herbicide, thereby examining whether growth of transformed BT3 was not inhibited.
BT3 competent cells were transformed with the pET303-CyPPO19 (wild type), pET303-CyPPO18 (wild type) plasmids, and those with a mutation(s) constructed (refer to example 2) via heat shock method, and were cultured in LB agar media containing ampicillin.
Single colony transformed with each CyPPO gene was cultured in 3 mL of LB broth (LPSS) containing ampicillin for more than 12 hours, and then was subcultured in LB broth until absorbance (OD600) reached 0.5 to 1. Then, it was diluted with LB broth to OD600=0.5. Again, the diluted solution was serially diluted 4 times by a factor of one tenth.
The LB agar media (LB 25 g/L, Bacto agar 12 g/L) containing ampicillin (100 μg/mL) and 0 to 2,000 μM of various herbicides were prepared. Herbicide solution stocks were all prepared in DMSO.
Then, 10 μL of each diluted solution of E. coli was dropped on the plate and cultured at 37° C. under dark for 16-20 hours. PPO-inhibiting herbicide resistance was evaluated with the extent of E. coli growth containing each gene was observed.
The extent of herbicide resistance was evaluated by the relative growth of variants to that of wild type, and listed in Tables 9 and 10 and FIGS. 3 to 32.
In Tables 9 and 10, the tolerance level of variants showing equivalent resistance to wild type was presented as ‘−’, and was done as ‘+’ per each 10-fold resistance until ‘+++++’ as maximal resistance.
FIGS. 3 to 30 and FIGS. 31 and 32 show the transformed E. coli growth result of CyPPO19 WT and its variants and CyPPO18 WT and its variants, respectively. The concentrations of herbicides were written above the photographs of tolerance test. A 10-fold dilution series of spots were shown from OD600=0.5 of the leftmost spot to OD600=0.00005 of the rightmost one.

Row | Molecule | tolerance level relative to wild type, Carfentrazone | tolerance level relative to wild type, Flumioxazin | tolerance level relative to wild type, Fomesafen | tolerance level relative to wild type, Oxyfluorfen | tolerance level relative to wild type, Saflufenacil | tolerance level relative to wild type, Sulfentrazone | tolerance level relative to wild type, Tiafenacil
1 | CyPPO19 R89A + V305M + F360T: variant of CyPPO19 PPO protein (SEQ ID NO: 1) (protein, Synthetic_PPO of Thermosynechococcus elongatus PKUAC-SCTE542 (comprising GenBank No. CP032152.1)) MSEVDVAIVGGGLSGLSLAWRLQQSAPQYSVVLLEASDRLGGNITTQTAEGFVWELGPNSFAPTPALLQLIAEVGLQSELIRGDRHLPAYIYWRGQLYPLQPTRPLALATSNLLSPWGKVRAALGALGFVPPYLGSGDESVNSFFRRHLGQEVAERLVAPFVSGVYAGDPQQLSAAAAFRRIAQLEKLGGGLIAGALHLRRQQAPKPKPPTSVQMRPGELGSFKEGLAALPRAIAQQLKAPIHLQTPVQEITPDPKGGYLLRSGEQTWRARSVVLATPAYQTAELVAPFQPAIARVLATIPYPTMACVVLAYPAGLGRSVRPGFGVLIPRSQGIRTLGTIWSSCLFPQRTPAGWQVFTSTIGGATDPDLASLSEEAIVQQVQQDLNRLLDLPAAKARLLGMKVWRRAIPQYMVGYPEQWQQVTHALSQTPGLFLCSNYAEGVALGDRVEHGNRTAAAVAAYLSGGQP | ++ (‘+’ per each 10-fold resistance) | +++++ (until ‘+++++’ as maximal resistance) | +++ (‘+’ per each 10-fold resistance) | +++ (‘+’ per each 10-fold resistance) | +++++ (until ‘+++++’ as maximal resistance) | +++++ (until ‘+++++’ as maximal resistance) | +++++ (until ‘+++++’ as maximal resistance)
2 | CyPPO19 R89A + L327T + F360T: variant of CyPPO19 PPO protein (SEQ ID NO: 1) (protein, Synthetic_PPO of Thermosynechococcus elongatus PKUAC-SCTE542 (comprising GenBank No. CP032152.1)) MSEVDVAIVGGGLSGLSLAWRLQQSAPQYSVVLLEASDRLGGNITTQTAEGFVWELGPNSFAPTPALLQLIAEVGLQSELIRGDRHLPAYIYWRGQLYPLQPTRPLALATSNLLSPWGKVRAALGALGFVPPYLGSGDESVNSFFRRHLGQEVAERLVAPFVSGVYAGDPQQLSAAAAFRRIAQLEKLGGGLIAGALHLRRQQAPKPKPPTSVQMRPGELGSFKEGLAALPRAIAQQLKAPIHLQTPVQEITPDPKGGYLLRSGEQTWRARSVVLATPAYQTAELVAPFQPAIARVLATIPYPTVACVVLAYPAGLGRSVRPGFGVTIPRSQGIRTLGTIWSSCLFPQRTPAGWQVFTSTIGGATDPDLASLSEEAIVQQVQQDLNRLLDLPAAKARLLGMKVWRRAIPQYMVGYPEQWQQVTHALSQTPGLFLCSNYAEGVALGDRVEHGNRTAAAVAAYLSGGQP | + (‘+’ per each 10-fold resistance) | +++++ (until ‘+++++’ as maximal resistance) | +++++ (until ‘+++++’ as maximal resistance) | +++ (‘+’ per each 10-fold resistance) | +++++ (until ‘+++++’ as maximal resistance) | +++++ (until ‘+++++’ as maximal resistance) | +++++ (until ‘+++++’ as maximal resistance)
3 | CyPPO19 R89A + L327T + F360I: variant of CyPPO19 PPO protein (SEQ ID NO: 1) (protein, Synthetic_PPO of Thermosynechococcus elongatus PKUAC-SCTE542 (comprising GenBank No. CP032152.1)) MSEVDVAIVGGGLSGLSLAWRLQQSAPQYSVVLLEASDRLGGNITTQTAEGFVWELGPNSFAPTPALLQLIAEVGLQSELIRGDRHLPAYIYWRGQLYPLQPTRPLALATSNLLSPWGKVRAALGALGFVPPYLGSGDESVNSFFRRHLGQEVAERLVAPFVSGVYAGDPQQLSAAAAFRRIAQLEKLGGGLIAGALHLRRQQAPKPKPPTSVQMRPGELGSFKEGLAALPRAIAQQLKAPIHLQTPVQEITPDPKGGYLLRSGEQTWRARSVVLATPAYQTAELVAPFQPAIARVLATIPYPTVACVVLAYPAGLGRSVRPGFGVTIPRSQGIRTLGTIWSSCLFPQRTPAGWQVFTSIIGGATDPDLASLSEEAIVQQVQQDLNRLLDLPAAKARLLGMKVWRRAIPQYMVGYPEQWQQVTHALSQTPGLFLCSNYAEGVALGDRVEHGNRTAAAVAAYLSGGQP | + (‘+’ per each 10-fold resistance) | ++++ (‘+’ per each 10-fold resistance) | ++ (‘+’ per each 10-fold resistance) | + (‘+’ per each 10-fold resistance) | ++ (‘+’ per each 10-fold resistance) | +++ (‘+’ per each 10-fold resistance) | ++++ (‘+’ per each 10-fold resistance)
4 | CyPPO19 R89A + I408R + F360M: variant of CyPPO19 PPO protein (SEQ ID NO: 1) (protein, Synthetic_PPO of Thermosynechococcus elongatus PKUAC-SCTE542 (comprising GenBank No. CP032152.1)) MSEVDVAIVGGGLSGLSLAWRLQQSAPQYSVVLLEASDRLGGNITTQTAEGFVWELGPNSFAPTPALLQLIAEVGLQSELIRGDRHLPAYIYWRGQLYPLQPTRPLALATSNLLSPWGKVRAALGALGFVPPYLGSGDESVNSFFRRHLGQEVAERLVAPFVSGVYAGDPQQLSAAAAFRRIAQLEKLGGGLIAGALHLRRQQAPKPKPPTSVQMRPGELGSFKEGLAALPRAIAQQLKAPIHLQTPVQEITPDPKGGYLLRSGEQTWRARSVVLATPAYQTAELVAPFQPAIARVLATIPYPTVACVVLAYPAGLGRSVRPGFGVLIPRSQGIRTLGTIWSSCLFPQRTPAGWQVFTSMIGGATDPDLASLSEEAIVQQVQQDLNRLLDLPAAKARLLGMKVWRRARPQYMVGYPEQWQQVTHALSQTPGLFLCSNYAEGVALGDRVEHGNRTAAAVAAYLSGGQP | + (‘+’ per each 10-fold resistance) | ++++ (‘+’ per each 10-fold resistance) | +++ (‘+’ per each 10-fold resistance) | ++ (‘+’ per each 10-fold resistance) | ++++ (‘+’ per each 10-fold resistance) | +++ (‘+’ per each 10-fold resistance) | +++ (‘+’ per each 10-fold resistance)
5 | CyPPO19 R89A + L327T + F360M: variant of CyPPO19 PPO protein (SEQ ID NO: 1) (protein, Synthetic_PPO of Thermosynechococcus elongatus PKUAC-SCTE542 (comprising GenBank No. CP032152.1)) MSEVDVAIVGGGLSGLSLAWRLQQSAPQYSVVLLEASDRLGGNITTQTAEGFVWELGPNSFAPTPALLQLIAEVGLQSELIRGDRHLPAYIYWRGQLYPLQPTRPLALATSNLLSPWGKVRAALGALGFVPPYLGSGDESVNSFFRRHLGQEVAERLVAPFVSGVYAGDPQQLSAAAAFRRIAQLEKLGGGLIAGALHLRRQQAPKPKPPTSVQMRPGELGSFKEGLAALPRAIAQQLKAPIHLQTPVQEITPDPKGGYLLRSGEQTWRARSVVLATPAYQTAELVAPFQPAIARVLATIPYPTVACVVLAYPAGLGRSVRPGFGVTIPRSQGIRTLGTIWSSCLFPQRTPAGWQVFTSMIGGATDPDLASLSEEAIVQQVQQDLNRLLDLPAAKARLLGMKVWRRAIPQYMVGYPEQWQQVTHALSQTPGLFLCSNYAEGVALGDRVEHGNRTAAAVAAYLSGGQP | + (‘+’ per each 10-fold resistance) | ++++ (‘+’ per each 10-fold resistance) | +++ (‘+’ per each 10-fold resistance) | ++ (‘+’ per each 10-fold resistance) | ++ (‘+’ per each 10-fold resistance) | ++ (‘+’ per each 10-fold resistance) | +++ (‘+’ per each 10-fold resistance)
